This series can be described thus: protein stability index of a GFP-peptide fusion (GPS, HEK-293T) (PSI 1-6); higher = more stable. To be noted: c terminus: a fixed tail appended.

± gives the standard deviation.
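Also: 24-mer peptide tiles fused after GFP, lentivirally expressed, FACS-sorted into six equal bins by GFP/DsRed ratio, decoded by Illumina sequencing, PSI is the read-weighted mean bin number.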

With ESAQATFQAHRDKYEKLRGDVAIK [ARFIP2], the protein stability index reads like this: (treatment: DMSO) 4.37 ± 0.16; (treatment: MLN4924 1 uM, 8 h) 4.62 ± 0.18.
Taken in the same sequence, the figures for IERQWGNLLGEGQHKCDECGKSFT [ZSCAN9] were 3.79 ± 0.34 and 3.55 ± 0.22.
Taken in the same sequence, the figures for PPDSKEGIVVESNHDSHMAKERAH [PDZK1] were 5.55 ± 0.36 and 5.55 ± 0.23.
Taken in the same sequence, the figures for MASRKTKKKEGGALRAQRASSNVF [MYL5] were 4.13 ± 0.15 and 4.05 ± 0.25.
Take LARRRRRRQARREAEADKPRRLGR [NOP53]: the protein stability index reads like this: (treatment: DMSO) 4.63 ± 0.093; (treatment: MLN4924 1 uM, 8 h) 4.75 ± 0.42.
Taken in the same sequence, the figures for LIGDLIGHSSSVEMFLYFEDHGLV [WDR41] were 2.57 ± 0.51 and 2.83 ± 0.81.
For LPHPKSMLQATAEANNLAAAASAK [ATL3] the same measures were 4.86 ± 0.27 and 5.07 ± 0.19.
For AWQYGPCTGITRLQRWCRAKHMGL [POLD4] the same measures were 2.15 ± 0.12 and 2.3 ± 0.42.
On to ICAIEYLHSKEIVYRDLKPENILL [PRKX], for which the protein stability index (treatment: DMSO) was 2.61 ± 0.39 and the protein stability index (treatment: MLN4924 1 uM, 8 h) turned out to be 2.96 ± 0.94.
Taken in the same sequence, the figures for RLSVLLNLLPAAGELQESGLALCP [SMG5] were 2.02 ± 0.39 and 2.07 ± 0.18.
For NLTSPASITFTTGLEAPRDLEAKE [TNXB] the same measures were 5.21 ± 0.51 and 5.51 ± 0.36.
For KDEWHKVFDLPESLGGIRACTLTV [KLHL13] the same measures were 2.89 ± 0.63 and 2.89 ± 0.83.
As for PQSSKSTVVKSLIDNSSEIEDEDQ [FAN1], the protein stability index was found to be 5.65 ± 0.14 (treatment: DMSO) and 5.6 ± 0.25 (treatment: MLN4924 1 uM, 8 h).
Taken in the same sequence, the figures for PPPPPSYDPDYIQCPYCQRRFNEN [ZC2HC1A] were 5.27 ± 0.34 and 5.44 ± 0.17.
In the case of LAESEFESAAFSQGSRSGVSGGSR [PHTF1], the protein stability index came out at 4.83 ± 0.3 (treatment: DMSO) and 4.93 ± 0.32 (treatment: MLN4924 1 uM, 8 h).
Taken in the same sequence, the figures for WMKHNVADSQITTIGNLVPQKTYS [PTPRD] were 3.29 ± 0.55 and 3.17 ± 0.29.
For WMIEEKATITSRGSSLSGSLCSLL [LURAP1L] the same measures were 2.28 ± 0.17 and 2.47 ± 0.2.
For KLPNDSRVERRFHFSQSLTVIHDF [FAF2] the same measures were 2.17 ± 0.19 and 2.26 ± 0.44.
In the case of QPVSLRRRKREVLVEDMVSQEEAQ [ZNF24], the protein stability index was 5.07 ± 0.25 (treatment: DMSO) and 5.34 ± 0.33 (treatment: MLN4924 1 uM, 8 h).
For STSRAHKLPSRRQPGLLHLQSCGD [FAM189A2] the same measures were 3.67 ± 0.33 and 3.85 ± 0.13.
For MSTIGSFEGFQAVSLKQEGDDQPS [TPRG1] the same measures were 5.22 ± 0.082 and 5.22 ± 0.078.
Taken in the same sequence, the figures for EETRQKQLLADEKMKQLTEETEVL [TRIM35] were 5.65 ± 0.11 and 5.57 ± 0.22.
On to STVKNEFSLKTFKRKSEVERAVKR [MATN2], for which the protein stability index (treatment: DMSO) came to 4.17 ± 0.14 and the protein stability index (treatment: MLN4924 1 uM, 8 h) was 4.39 ± 0.3.
Taken in the same sequence, the figures for GQVLHFENVKDVPFGFQTVTSDVN [SERPINB5] were 3.85 ± 0.36 and 3.84 ± 0.42.
In the case of GKSFCHSTHLTVHRRIHTGEKPYE [ZNF8], the protein stability index runs as follows: (treatment: DMSO) 3 ± 0.16; (treatment: MLN4924 1 uM, 8 h) 3.35 ± 0.3.
With GSKEGNHHSTQPKRNKRNPIFQDS [FAM104B], the protein stability index was 4.57 ± 0.21 (treatment: DMSO) and 4.55 ± 0.3 (treatment: MLN4924 1 uM, 8 h).
For TSYRLQGLKPNSLYYFRLAARSPQ [PTPRD] the same measures were 2.33 ± 0.52 and 2.42 ± 0.39.
With FLSSEKQICGTHRQTKKMFCDMDK [TRIM43], the protein stability index turned out to be 3.18 ± 0.33 (treatment: DMSO) and 3.4 ± 0.19 (treatment: MLN4924 1 uM, 8 h).
Taken in the same sequence, the figures for SRSRSRSRSRSRSRSNSRSRSYSP [SRSF1] were 5.52 ± 0.33 and 5.56 ± 0.28.
For STGEVYCRVPNSGKDEIEAAVKAA [ALDH8A1] the same measures were 4.93 ± 0.4 and 4.94 ± 0.32.
For YIMTRDYLTVKVWDLNMENRPIET [PPP2R2B] the same measures were 2.16 ± 0.5 and 2.45 ± 0.26.
In turn, EMAFNTRCKEENTIILQQLLPLRT [NLN] registered a protein stability index (treatment: DMSO) of 2.54 ± 0.55 and a protein stability index (treatment: MLN4924 1 uM, 8 h) of 2.5 ± 0.32.
Taken in the same sequence, the figures for DPFTVPTISFICRELDAISTNEEE [PRIM1] were 4.85 ± 0.31 and 4.78 ± 0.3.
For DGSKSLGEENFEVVKQFVTGIIDS [MATN2] the same measures were 4.38 ± 0.13 and 4.33 ± 0.27.
For LFEEEDHVKKLQQKVATLEKRNRQ [CCDC3] the same measures were 4.46 ± 0.29 and 4.68 ± 0.23.
PSSMDLLIQDSPDSSTSPKGKQPT [NANOGP8]: the protein stability index was found to be 5.2 ± 0.2 (treatment: DMSO) and 5.3 ± 0.18 (treatment: MLN4924 1 uM, 8 h).
Taken in the same sequence, the figures for HAFQKELTCVICLNYLVDPVTICC [TRIM43] were 3.04 ± 0.33 and 2.95 ± 0.4.
For the sequence MHRLGEPQARMREENMERIGEEVR [BEX1], the protein stability index was 5.14 ± 0.13 (treatment: DMSO) and 5.2 ± 0.21 (treatment: MLN4924 1 uM, 8 h).
Regarding RKFWWKNVKMIVLICVIVFIIILF [VAMP8], the protein stability index was found to be 3.13 ± 0.32 (treatment: DMSO) and 2.98 ± 0.3 (treatment: MLN4924 1 uM, 8 h).
For DVEGAESQLDEDEHGLHTKYIHRM [TRAF3IP2] the same measures were 5.09 ± 0.23 and 5.13 ± 0.11.
Taken in the same sequence, the figures for MKYTSEKFLEICKLSGFMSKLVPA [TPRG1] were 3.05 ± 1 and 2.56 ± 0.45.
As to FITRQLKGLEDTKSPQFNRYFYLL [PDS5B], the protein stability index (treatment: DMSO) stood at 2.01 ± 0.37 and the protein stability index (treatment: MLN4924 1 uM, 8 h) was determined as 2.11 ± 0.16.
For GEEQLKTHKKCKEEVVSTLDAVQV [FCHO1] the same measures were 4.13 ± 0.38 and 4.12 ± 0.19.
For TLRRIQASMAPAAALPPVPSPPAA [SERTAD1] the same measures were 3.6 ± 0.23 and 3.8 ± 0.31.
As to PAPCADGPAGGLADLSSGSSGEDD [PWWP2B], the protein stability index stood at 5.51 ± 0.23 (treatment: DMSO) and 5.66 ± 0.15 (treatment: MLN4924 1 uM, 8 h).
Consider ELRDSSAYHVPNRTLASGRLLSYR [DNAAF3], for which the protein stability index worked out at 3.04 ± 0.11 (treatment: DMSO) and 3.25 ± 0.096 (treatment: MLN4924 1 uM, 8 h).
Taken in the same sequence, the figures for DEEQQVLLSRLEEEEQDILQRLRE [TRIM39] were 5.27 ± 0.098 and 5.28 ± 0.33.
For LFFIDGSTPSDNIVRRFLNICENT [CDC14A] the same measures were 2.37 ± 0.17 and 2.22 ± 0.24.
Taken in the same sequence, the figures for AQPPDYTFPSGSGAHFPQVPGGAV [PI4K2A] were 3.93 ± 0.19 and 4.01 ± 0.12.
As to VPQPARMPYISDKHPRQTLEVINL [KLHL20], the protein stability index stood at 2.88 ± 0.2 (treatment: DMSO) and 3.2 ± 0.31 (treatment: MLN4924 1 uM, 8 h).
Turning to GDFAWERVRGLGLPKLYLPTGPRR [CDKN1A], the protein stability index runs as follows: (treatment: DMSO) 2.98 ± 0.32; (treatment: MLN4924 1 uM, 8 h) 3.32 ± 0.4.
For LRCLDRDEPSKPTLALEYTYGRRA [DYNC2LI1] the same measures were 3.45 ± 0.14 and 3.41 ± 0.32.
For STDNIVSQWDVLSGDCDQRFRFPS [RBBP5] the same measures were 3.64 ± 0.1 and 3.67 ± 0.16.
Taken in the same sequence, the figures for ERRRELVRSQTLPRTSEAQARKAL [SMTNL2] were 5.27 ± 0.39 and 5.27 ± 0.29.
For the sequence ASHCLMNHPDLAKDLTEYLKVRSH [PDS5B], the protein stability index was 3.05 ± 0.27 (treatment: DMSO) and 3.01 ± 0.18 (treatment: MLN4924 1 uM, 8 h).
For ATKITLSAIYKWITDNFCYFRHAD [FOXJ1] the same measures were 3 ± 0.21 and 2.77 ± 0.49.
For DLLNVCMRHVEKMCKADLSRNFIE [TRIM29] the same measures were 3.09 ± 0.21 and 2.87 ± 0.28.
For the sequence QGRFCTIFRSYSRGAQGILLVYDI [RAB40C], the protein stability index (treatment: DMSO) turned out to be 2.74 ± 0.61 and the protein stability index (treatment: MLN4924 1 uM, 8 h) worked out at 3.1 ± 0.64.
RLYRLKLEELTKLQNNCTSSITRQ [TMEM120A]: the protein stability index (treatment: DMSO) turned out to be 2.62 ± 0.092 and the protein stability index (treatment: MLN4924 1 uM, 8 h) is 2.81 ± 0.3.
For the sequence ELRLQSEAFKKHSLDLLSKERELN [CCDC89], the protein stability index is, setting by setting: (treatment: DMSO) 3.8 ± 0.2; (treatment: MLN4924 1 uM, 8 h) 3.69 ± 0.42.
For GGIPALVKMLGSPVDSVLFYAITT [CTNNB1] the same measures were 3.19 ± 0.79 and 3.07 ± 0.99.
For VRSGAWHFSFNVKFYPPDPAQLSE [EPB41L3] the same measures were 1.98 ± 0.61 and 2.53 ± 0.18.
Taken in the same sequence, the figures for GKDCFLELAPDFVGDILWEHLEIL [ETS1] were 2.42 ± 0.54 and 2.05 ± 0.39.
For the sequence IDGDGDDMERFMEEMRELRRKIRE [BEX5], the protein stability index worked out at 3.26 ± 0.24 (treatment: DMSO) and 3.71 ± 0.34 (treatment: MLN4924 1 uM, 8 h).
Taken in the same sequence, the figures for EKYSVATQLFIGGVTGWCTGFIFQ [FUNDC2] were 2.75 ± 0.75 and 3.06 ± 0.35.
For VTASPPTDLIWKNQNSWGTGEDVK [LMNB1] the same measures were 4.36 ± 0.26 and 4.37 ± 0.24.
Taken in the same sequence, the figures for LLDDGQQASPYHPGSCGAGAPSPG [ELF3] were 4.71 ± 0.1 and 4.57 ± 0.39.
For the sequence SHPACPLEFAYYFRPGHLLANACL [ZSWIM9], the protein stability index is 2.81 ± 0.54 (treatment: DMSO) and 2.52 ± 0.56 (treatment: MLN4924 1 uM, 8 h).
Take SADMDESDEDDEEERRRRVFDVPI [FBXO3]: the protein stability index was 5.32 ± 0.18 (treatment: DMSO) and 5.35 ± 0.11 (treatment: MLN4924 1 uM, 8 h).
For YLPKNTHPFLYLSLEISPQNVDVN [MLH1] the same measures were 3.23 ± 1.1 and 2.09 ± 0.3.
For MVGLILGPFGVNHGVELHSDVIEY [PCMTD2] the same measures were 3 ± 1.1 and 2.82 ± 0.64.
For GVTAIIFCVALSDYDLVLAEDEEM [GNAI1] the same measures were 3.86 ± 0.17 and 2.75 ± 0.9.
